The target in assay [1] is T1, Notch1(8-12) EGF8-12 (Rattus norvegicus, UniProt Q07008).
T1 chain: LLCLT
The experiment in a line: SPR. (Surface plasmon resonance follows binding to a sensor surface in real time, without labels.)

Assay [2] addresses T2, Notch1(11-12) EGF11-12 (Rattus norvegicus, UniProt Q07008).
T2 chain: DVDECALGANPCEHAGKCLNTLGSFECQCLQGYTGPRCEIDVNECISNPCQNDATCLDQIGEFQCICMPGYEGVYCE
Kind of assay: SPR.

Drawing on publication PMC5459593 (2017), this text covers Kd for 1 molecule.

B1: DLL4(N-3) N-EGF3 (protein)
chain: SGIFQLRLQEFANERGMLANGRPCEPGCRTFFRICLKHYQATFSEGPCTFGNVSTPVLGTNSFVIRDKNSGSGRNPLQLPFNFTWPGTFSLNIQAWHTPGDDLRPETSPGNSLISQIIIQGSLAVGKNWKSDEQNNTLTRLRYSYRVVCSDNYYGDSCSRLCKKRDDHFGHYECQPDGSLSCLPGWTGKYCDQPICLSGCHEQNGYCSKPDECNCRPGWQGPLCNECIPHNGCRHGTCTIPWQCACDEGWGGLFCDQDLNYCTHHSPCKNGSTCSNSGPRGYTCTCLPGYTGEHCE
Take B1: the Kd in assay [1] was 9.7 µM; in assay [2] it was 12.8 µM.

In general, Kd refers to the concentration at which binding is half-saturated.
